In one data set the test system is AUR2. As to the kind of experiment: AUR2 protein expression by immunoblot after antisense oligo treatment of H1299 cells. The class given is cell-based. The settings on record: human tumor cell line H1299, lipofectin, each oligo 1 μM then 200 nM, harvested ~40 hours after initial treatment. As for the experimental part:
Human H1299 cells were seeded at ˜40–50% confluency in a 6 well plate (Falcon). The following day lipofectin (Gibco) and oligo(s) were mixed with OptiMEM (Gibco) such that the final concentration of lipofectin is 100 μg/mL and the final concentration of each oligo is 1 μM in a volume of 200 μL. The lipofectin/oligo/OptiMEM mixture was incubated at room temperature (20–25° C.) for 15 minutes, 800 μL of OptiMEM was added to the lipofectin/oligo/OptiMEM mixture, and mixed gently. The growth medium was removed from the H1299 cells, which were at ˜80% confluency. Cells were washed once with OptiMEM. The OptiMEM was aspirated, the lipofectin/oligo/OptiMEM mixture was added, cultures incubated at 37° C. for 4 hours. The lipofectin/oligo/OptiMEM mixture was removed and replaced with normal growth medium containing the antisense oligo(s) at a concentration of 200 nM. The plates were returned to the 37° C. incubator for 16–20 hours after which the growth medium was removed from the cells and they were washed once with OptiMEM. The OptiMEM was again aspirated and the lipofectin/oligo/OptiMEM mixture was added (prepared as described above) and the plates again were incubated at 37° C. for 4 hours. The lipofectin/oligo/OptiMEM mixture was removed again and replaced with normal growth medium containing the antisense oligo(s) at a concentration of 200 nM. The platea were returned to the 37° C. incubator for 16–20 hours. The cells were harvested (˜40 hours after initial treatment) and analyzed for aur2 mRNA by northern blot or AUR2 protein expression by immunoblot.

Data set [1] concerns the target myelin basic protein (Sigma).

As to “CGTCCGCCACTCCGACCAGCC (listed as DNA, chemistry not given here) [SEQ ID NO:31, antisense oligonucleotide to nucleotides 42–62 of aur2]”, the AUR2 protein expression entry in the data set on AUR2 was “significantly down regulated”.

Consider “SEQ ID NO:16: printed in b341 as antisense oligonucleotide targeting human aur2 mRNA; probably misprint for one of SEQ ID NO:30-32 (antisense GARTTYGGNGARGTNTTYYTNGC; listed as DNA, chemistry not fully specified)”, for which the AUR2 protein expression result in the data set on AUR2 is on record as “significantly down regulate”.

Regarding “SEQ ID NO:17: printed in b341 as antisense oligonucleotide targeting human aur2 mRNA; probably misprint for one of SEQ ID NO:30-32 (antisense AGNACNCCRAANGCCCACACRTC; listed as DNA, chemistry not fully specified)”, in the data set on AUR2, the AUR2 protein expression entry is given as “significantly down regulate”. For the molecule “TGCAGTCGAACCTTGCCTCCA (listed as DNA, chemistry not given here) [SEQ ID NO:32, antisense oligonucleotide to nucleotides 1654–1674 of aur2]”, the AUR2 protein expression entry in the data set on AUR2 is on record as “significantly down regulated”.

For “CAGGGCAGAGTGGTCACTTTC (listed as DNA, chemistry not given here) [SEQ ID NO:30, antisense oligonucleotide to nucleotides 1743–1763 of aur2]”, the AUR2 protein expression result in the data set with AUR2 is on record as “significantly down regulated”.

B1: human AUR2 (AURORA TWO), endogenous protein in lysates of human tumors and tumor cell lines (protein)
chain: MDRSKENCISGPVKATAPVGGPKRVLVTQQFPCQNPLPVNSGQAQRVLCPSNSSQRVPLQAQKLVSSHKPVQNQKQKQLQATSVPHPVSRPLNNTQKSKQPLPSAPENNPEEELASKQKNEESKKRQWALEDFEIGRPLGKGKFGNVYLAREKQSKFILALKVLFKAQLEKAGVEHQLRREVEIQSHLRHPNILRLYGYFHDATRVYLILEYAPLGTVYRELQKLSKFDEQRTATYITELANALSYCHSKRVIHRDIKPENLLLGSAGELKIADFGWSVHAPSSRRTTLCGTLDYLPPEMIEGRMHDEKVDLWSLGVLCYEFLVGKPPFEANTYQETYKRISRVEFTFPDFVTEGARDLISRLLKHNPSQRPMLREVLEHPWITANSSKPSNCQNKESASKQS
For B1, the “in vitro kinase assay, phosphorylation of myelin basic protein” value in data set [1] was “AUR1 and AUR2 immunocomplexes were able to phosphorylate myelin basic protein”.

B2: human AUR1 (AURORA ONE), endogenous protein in SW480 cell lysate (protein)
chain: MAQKENSYPWPYGRQTAPSGLSTLPQRVLRKEPVTPSALVLMSRSNVQPTAAPGQKVMENSSGTPDILTRHFTIDDFEIGRPLGKGKFGNVYLAREKKSHFIVALKVLFKSQIEKEGVEHQLRREIEIQAHLHHPNILRLYNYFYDRRRIYLILEYAPRGELYKELQKSCTFDEQRTATIMEELADALMYCHGKKVIHRDIKPENLLLGLKGELKIADFGWSVHAPSLRRKTMCGTLDYLPPEMIEGRMHNEKVDLWCIGVLCYELLVGNPPFESASHNETYRRIVKVDLKFPASVPTGAQDLISKLLRHNPSERLPLAQVSAHPWVRANSRRVLPPSALQSVA
On to B2, for which, in data set [1], the “in vitro kinase assay, phosphorylation of myelin basic protein” value was “AUR1 and AUR2 immunocomplexes were able to phosphorylate myelin basic protein”.

B3: HA-tagged activated human AUR2 mutant T288D (protein)
chain: MDRSKENCISGPVKATAPVGGPKRVLVTQQFPCQNPLPVNSGQAQRVLCPSNSSQRVPLQAQKLVSSHKPVQNQKQKQLQATSVPHPVSRPLNNTQKSKQPLPSAPENNPEEELASKQKNEESKKRQWALEDFEIGRPLGKGKFGNVYLAREKQSKFILALKVLFKAQLEKAGVEHQLRREVEIQSHLRHPNILRLYGYFHDATRVYLILEYAPLGTVYRELQKLSKFDEQRTATYITELANALSYCHSKRVIHRDIKPENLLLGSAGELKIADFGWSVHAPSSRRTDLCGTLDYLPPEMIEGRMHDEKVDLWSLGVLCYEFLVGKPPFEANTYQETYKRISRVEFTFPDFVTEGARDLISRLLKHNPSQRPMLREVLEHPWITANSSKPSNCQNKESASKQSYPYDVPDYAS
In the case of B3, in data set [1], the “in vitro kinase assay on protein from stable NIH3T3 lines” value is given as “the activated AUR2 mutant (T288D) had marked activity on this artificial substrate”. In addition, the “in vitro kinase assay on protein from stable Rat1 lines” value with alpha-casein is “the wild-type and activated AUR2 (T288D) proteins had increased activity on this artificial substrate”.

B4: HA-tagged wild-type human AUR2 (entire coding domain with C-terminal HA epitope) (protein)
chain: MDRSKENCISGPVKATAPVGGPKRVLVTQQFPCQNPLPVNSGQAQRVLCPSNSSQRVPLQAQKLVSSHKPVQNQKQKQLQATSVPHPVSRPLNNTQKSKQPLPSAPENNPEEELASKQKNEESKKRQWALEDFEIGRPLGKGKFGNVYLAREKQSKFILALKVLFKAQLEKAGVEHQLRREVEIQSHLRHPNILRLYGYFHDATRVYLILEYAPLGTVYRELQKLSKFDEQRTATYITELANALSYCHSKRVIHRDIKPENLLLGSAGELKIADFGWSVHAPSSRRTTLCGTLDYLPPEMIEGRMHDEKVDLWSLGVLCYEFLVGKPPFEANTYQETYKRISRVEFTFPDFVTEGARDLISRLLKHNPSQRPMLREVLEHPWITANSSKPSNCQNKESASKQSYPYDVPDYAS
Consider B4, for which the “in vitro kinase assay on protein from stable NIH3T3 lines” value in data set [1] was “The wild-type and kinase inactive AUR2 mutant (K162M) were unable to phosphorylate myelin basic protein in vitro”. Further, the “in vitro kinase assay on protein from stable Rat1 lines” value in the data set with alpha-casein is “the wild-type and activated AUR2 (T288D) proteins had increased activity on this artificial substrate”.

B5: HA-tagged kinase inactive human AUR2 mutant K162M (protein)
chain: MDRSKENCISGPVKATAPVGGPKRVLVTQQFPCQNPLPVNSGQAQRVLCPSNSSQRVPLQAQKLVSSHKPVQNQKQKQLQATSVPHPVSRPLNNTQKSKQPLPSAPENNPEEELASKQKNEESKKRQWALEDFEIGRPLGKGKFGNVYLAREKQSKFILALMVLFKAQLEKAGVEHQLRREVEIQSHLRHPNILRLYGYFHDATRVYLILEYAPLGTVYRELQKLSKFDEQRTATYITELANALSYCHSKRVIHRDIKPENLLLGSAGELKIADFGWSVHAPSSRRTTLCGTLDYLPPEMIEGRMHDEKVDLWSLGVLCYEFLVGKPPFEANTYQETYKRISRVEFTFPDFVTEGARDLISRLLKHNPSQRPMLREVLEHPWITANSSKPSNCQNKESASKQSYPYDVPDYAS
B5: the “in vitro kinase assay on protein from stable NIH3T3 lines” value in data set [1] was “The wild-type and kinase inactive AUR2 mutant (K162M) were unable to phosphorylate myelin basic protein in vitro”. Also, the “in vitro kinase assay on protein from stable Rat1 lines” value with alpha-casein was “The kinase inactive AUR2 mutant (K162M) was unable to phosphorylate-casein over the levels observed in the vector control cell line in vitro”.
